Our source for the Kd values is patent US20200197536A1.

For this test, the target named is Met (hepatocyte growth factor receptor) on Hep3B cells (human) (UniProt P08581). Briefly: flow cytometry saturation binding of Alexa Fluor 647-labeled protocells (0.015 wt % MC40, about 6 peptides/particle) on cytochalasin D-treated Hep3B cells; non-specific binding measured with saturating unlabeled hepatocyte growth factor and subtracted.
Chain of UniProt P08581 (P08581 25-1390): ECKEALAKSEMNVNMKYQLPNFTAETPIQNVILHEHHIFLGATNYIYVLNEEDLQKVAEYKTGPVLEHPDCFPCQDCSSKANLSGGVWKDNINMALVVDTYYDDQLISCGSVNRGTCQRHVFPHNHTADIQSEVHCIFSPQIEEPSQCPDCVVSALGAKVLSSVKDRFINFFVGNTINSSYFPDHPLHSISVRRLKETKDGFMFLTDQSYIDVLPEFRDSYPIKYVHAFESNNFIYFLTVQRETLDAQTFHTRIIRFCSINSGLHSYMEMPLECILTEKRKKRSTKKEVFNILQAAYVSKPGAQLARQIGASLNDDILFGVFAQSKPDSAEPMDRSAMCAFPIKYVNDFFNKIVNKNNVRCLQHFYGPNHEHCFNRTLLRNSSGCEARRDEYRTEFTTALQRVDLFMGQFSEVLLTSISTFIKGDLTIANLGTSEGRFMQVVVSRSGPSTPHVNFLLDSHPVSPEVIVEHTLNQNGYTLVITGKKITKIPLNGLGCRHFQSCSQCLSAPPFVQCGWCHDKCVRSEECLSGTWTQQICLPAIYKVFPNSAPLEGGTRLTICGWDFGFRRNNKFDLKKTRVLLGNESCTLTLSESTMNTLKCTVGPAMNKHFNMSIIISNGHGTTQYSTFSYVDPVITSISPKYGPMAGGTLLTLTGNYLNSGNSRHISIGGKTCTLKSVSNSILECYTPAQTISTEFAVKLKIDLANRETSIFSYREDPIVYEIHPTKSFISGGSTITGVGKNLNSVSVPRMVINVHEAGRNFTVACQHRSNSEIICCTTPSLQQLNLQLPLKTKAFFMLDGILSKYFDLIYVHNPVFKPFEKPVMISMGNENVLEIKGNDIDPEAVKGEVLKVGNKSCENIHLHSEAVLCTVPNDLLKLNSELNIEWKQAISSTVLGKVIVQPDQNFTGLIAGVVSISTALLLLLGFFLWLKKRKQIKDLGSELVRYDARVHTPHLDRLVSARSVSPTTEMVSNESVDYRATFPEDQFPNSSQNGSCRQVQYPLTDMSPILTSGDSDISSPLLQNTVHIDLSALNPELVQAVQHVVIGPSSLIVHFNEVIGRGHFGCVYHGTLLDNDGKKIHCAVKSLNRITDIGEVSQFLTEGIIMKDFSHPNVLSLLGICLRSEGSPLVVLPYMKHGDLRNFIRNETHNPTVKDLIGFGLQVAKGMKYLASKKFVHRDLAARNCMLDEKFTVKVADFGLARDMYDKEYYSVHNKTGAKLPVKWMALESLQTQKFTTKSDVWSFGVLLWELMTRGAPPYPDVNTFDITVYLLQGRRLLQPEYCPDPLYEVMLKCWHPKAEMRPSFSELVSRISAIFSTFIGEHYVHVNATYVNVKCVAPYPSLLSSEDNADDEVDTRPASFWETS

What is called Kd is a measure of binding affinity in units of concentration. Lower therefore signals tighter binding. Take “MC40-targeted protocells (mesoporous silica nanoparticle-supported lipid bilayer modified with 0.015 wt % MC40 targeting peptide)”: the Kd is 1.05 nM.
